In publication PMC9975944 (The EMBO Journal, 2023):

Biological target: T1, GFP-SOX7 (UniProt Q9BT81 1-388)
T1 sequence: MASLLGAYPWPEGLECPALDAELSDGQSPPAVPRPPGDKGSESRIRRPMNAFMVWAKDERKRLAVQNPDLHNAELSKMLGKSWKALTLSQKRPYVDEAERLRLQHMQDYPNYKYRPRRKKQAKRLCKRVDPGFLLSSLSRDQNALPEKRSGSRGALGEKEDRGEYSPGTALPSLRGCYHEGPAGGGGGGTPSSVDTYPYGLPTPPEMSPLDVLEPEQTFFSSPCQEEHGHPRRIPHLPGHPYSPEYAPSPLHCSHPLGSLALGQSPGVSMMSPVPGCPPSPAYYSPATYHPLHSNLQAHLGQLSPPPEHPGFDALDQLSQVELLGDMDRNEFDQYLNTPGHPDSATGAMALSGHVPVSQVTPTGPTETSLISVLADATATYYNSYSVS
Test: single-molecule two-colour coincidence spectroscopy

B1: HEY1-Cherry (natural protein)
chain: MKRAHPEYSSSDSELDETIEVEKESADENGNLSSALGSMSPTTSSQILARKRRRGIIEKRRRDRINNSLSELRRLVPSAFEKQGSAKLEKAEILQMTVDHLKMLHTAGGKGYFDAHALAMDYRSLGFRECLAEVARYLSIIEGLDASDPLRVRLVSHLNNYASQREAASGAHAGLGHIPWGTVFGHHPHIAHPLLLPQNGHGNAGTTASPTEPHHQGRLGSAHPEAPALRAPPSGSLGPVLPVVTSASKLSPPLLSSVASLSAFPFSFGSFHLLSPNALSPSAPTQAANLGKPYRPWGTEIGAF
Work on B1 yielded a coincidence ratio of 0.66.
